Assay [1] concerns the target full-length GyrB from M. tuberculosis (M. tuberculosis). As to the kind of experiment: far-Western, overlay or dot blot.
For assay [2], the target named is GyrA–SBP (GyrA fused to a Streptavidin-Binding Peptide) (M. tuberculosis) (UniProt P9WG47). As to the kind of experiment: SPR.

Usually koff stands for the first-order rate constant of dissociation. A higher koff goes with a short-lived complex.

Chain of full-length GyrB from M. tuberculosis (M. tuberculosis) (A5TY73 whole entry, the tested form may be a part): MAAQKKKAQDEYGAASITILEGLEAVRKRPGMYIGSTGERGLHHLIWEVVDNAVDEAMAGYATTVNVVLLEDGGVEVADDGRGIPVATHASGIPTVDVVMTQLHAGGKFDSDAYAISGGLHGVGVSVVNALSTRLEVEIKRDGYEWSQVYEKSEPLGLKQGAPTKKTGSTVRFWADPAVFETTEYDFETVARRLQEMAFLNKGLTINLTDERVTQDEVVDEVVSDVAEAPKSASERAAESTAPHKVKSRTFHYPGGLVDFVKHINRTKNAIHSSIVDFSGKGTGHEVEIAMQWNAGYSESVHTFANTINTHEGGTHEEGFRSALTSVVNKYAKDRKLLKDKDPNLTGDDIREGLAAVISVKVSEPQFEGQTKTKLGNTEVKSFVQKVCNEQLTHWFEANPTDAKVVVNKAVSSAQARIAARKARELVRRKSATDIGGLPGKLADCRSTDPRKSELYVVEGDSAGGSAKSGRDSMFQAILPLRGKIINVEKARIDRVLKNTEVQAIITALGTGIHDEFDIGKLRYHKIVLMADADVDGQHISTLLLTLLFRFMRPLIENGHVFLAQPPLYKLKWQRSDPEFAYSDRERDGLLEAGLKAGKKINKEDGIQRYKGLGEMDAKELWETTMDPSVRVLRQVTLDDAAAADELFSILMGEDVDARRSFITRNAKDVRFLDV

Consider “GyrA–SBP (GyrA fused to a Streptavidin-Binding Peptide) (from UniProt P9WG47 1-838) (natural protein)”, for which, in assay [1], the fold stronger with negatively supercoiled pBR322 than without DNA turned out to be 9 fold.

In assay [2], “full-length GyrB from M. tuberculosis (natural protein)” showed a Ka of 6.2e+07 M⁻¹ and a koff of 0.00101 s⁻¹.

The values are drawn from PMC3201873.
